Substitutions are numbered along the chain they refer to. Names may count otherwise.

Holding throughout (type): cell-based
The target of assay [1] is T1, Cav3.1 (Homo sapiens, UniProt O43497).
T1 construct: expressed in transfected cells; host or cells: HEK-293, stably transfected
The experiment in a line: Whole-cell patch clamp of Cav3.1 current in Cav3.1/HEK cells transfected with chimeras, truncations and point mutants (Example 6). To be noted: FIG. 38, FIG. 41. The method, then:
Transfection. HEK-293 cells stably transfected with either Cav3.1 or Cav3.2 were transiently transfected, at 50% confluency, with a bicistronic vector encoding both GFP and γ subunit cDNA's using Lipofectamine 2000 reagent (Invitrogen, Carlsbad, Calif.) as per the manufacturer's recommendations. Cells were visualized using an Nikon inverted microscope with an FITC filter.
Electrophysiology. Whole cell Ca^2+ currents were recorded using an Axon Instruments Axopatch-1D amplifier and Clampex 8.0 software. Pipettes were made from boroscillicate glass and had typical resistances of 2-4 Mohms. The pipette solution contained (in mM) 130 NaCl, 10 EGTA, 2 or 5 MgCl2, 1 CaCl2, 10 HEPES, 3 Tris-ATP, and 0.3 Li2GTP. Two different bath solutions were used. The first, used for experiments with γ subunit chimeras, contained (in mM) 130 NaCl, 1 MgCl2, 2 CaCl2, 10 glucose, 10 HEPES, and 0.03 TTX. The second, used for experiments with γ subunit containg point mutations, contained (in mM) 137 NaCl, 1 KCl, 1 MgCl2, 0.33 NaH2PO4, 2 CaCl2, 10 HEPES. All solutions were adjusted to pH 7.4 with NaOH and 280 mOsm with sucrose. No Cl^− currents were evident in any HEK-293 cells line, stably transfected or not, and no attempt was made to eliminate Cl^− currents from data records.
All electrophysiological data are from current records in which voltage offset was adjusted, pipette capacitance and whole cell capacitance were compensated and series resistance was compensated to >80%. Currents were filtered at 10 kHz and recorded at 40 kHz. In some cases, current records were off-line filtered at 1K. Current voltage relationships were recorded using an on-line P/−4 subtraction procedure to eliminate linear capacitative and leakage currents. Only recordings with less than 50 pA leakage current were used.
Several different protocols were used to determine the biophysical characteristics of currents in HEK-293 cells. The voltage dependence of activation was determined using “tail” currents. Cells were depolarized from a holding potential of −100 mV to test potentials ranging from −90 mV to +60 mV. Pulse durations varied and corresponded to the time to peak current measured at the corresponding test potentials. Following the conditioning pulse cells were re-polarized to −60 mV and the amplitude of the resulting “tail” current measured. The voltage dependence of inactivation was measured by depolarizing the cells to voltages ranging from −120 mV to 50 mV for 500 ms to inactivate the Ca^2+ channels. After this conditioning step the membrane was returned to the holding potential (−100 mV) for 3 ms and then depolarized a second time to +20 mV for 150 ms during which time the peak current was measured. Time constants for inactivation were measured by fitting a single exponential equation to the decay phase of currents elicited by voltage steps from −50 to +30 mV from a holding potential of −100 mV. Time constants for deactivation were measured by fitting either a single or a double exponential to the decay phase of tail currents.
To account for the inherent variation in calcium current density in the HEK-Cav3.1 stable cell line the averaged current density of each test group of cells was normalized to the mean current density of a control group of cells. A minimum of 5 cells (typically 7 to 10) from each group was used to calculate the mean current densities of test and control cells. At least two independent transfections were performed for each test condition. […]
A general note: The patch-clamp technique gives a direct electrical read-out from membranes.

In assay [2] the target is T1, Cav3.1. The experiment in a line: Whole-cell patch clamp of Cav3.1 dependent LVA calcium current in HEK-293/Cav3.1 cells transiently transfected with γ subunits (Example 1). The method, then: 2.3. Transfection. Untransfected HEK-293 cells, HEK-293 cell lines stably transfected with Cav3.1, and HL-1 cells were transiently transfected with vectors containing γ subunit, GFP, and modified CFP cDNAs using Lipofectamine 2000 reagent (InVitrogen) as per the manufacturer's recommendations. HEK-293 cells were grown to 70-80% confluence before transfection. HL-1 cells were grown to 50-75% confluence before transfection.
2.4. Electrophysiology. Whole-cell calcium currents were recorded using an Axopatch-1 D patch clamp system and Clampex 8.0 software. Pipettes were fabricated from borosilicate glass and had typical resistances of 2-4 MΩ. The pipette solution contained (in mM): 130 NaCl, 10 EGTA, 2 MgCl2, 1 CaCl2, 10 HEPES, 3 Tris-ATP, and either 0.3 Li2GTP or 0.3 Tris-GTP, adjusted to pH 7.4 with NaOH and 280 mOsm with sucrose. The bath solution contained (in mM): 137 NaCl (for HEK-293 experiments) or 120 TEACl (for HL-1 experiments), 1 KCl, 1 MgCl2, 0.33 NaH2PO4, 2 CaCl2 (for HEK-293 experiments) or 5 CaCl2 (for HL-1 experiments), 10 glucose (for HL-1 experiments only), 10 HEPES, and 30 μM TTX (for HEK-293 experiments only), adjusted to pH 7.4 with NaOH (for HEK-293 experiments) or TEAOH (for HL-1 experiments) and 280 mOsm with sucrose. NaCl was used as the major salt in the pipette solution order to eliminate any outward K+ currents.
Recordings from HEK-293 cells were made 48-96 h posttransfection, at which time expression, as measured by GFP fluorescence, peaked. HL-1 cells were used for recording 24-36 h post-transfection. Current densities in HEK-293/Cav3.1 cell experiments were normalized to control for variation in current expression in the different frozen stocks of stable cell lines used. […] HL-1 experiments were performed using a single stock of cells. All HEK-293 data are from current records in which pipette and whole-cell capacitance were about 100% compensated and series resistance was compensated to >80%. Whole-cell capacitance and series resistance were not compensated for HL-1 recordings as currents were typically <100 pA. Series resistance values were typically <10 MX, and no records were used in which the voltage error (as defined by Ver=Imax×Ra) was greater than 5 mV. The holding potential of all protocols used for HEK-293 cells was −100 mV except for steady-state inactivation protocols where the holding potential was −120 mV. The holding potential for protocols used for HL-1 cells was −90 mV. Current-voltage relationships for all HEK-293 and HL-1 cells were measured using 50 ms test depolarizations. Peak current amplitudes for activation curves were determined by fitting tail currents, elicited by stepping membrane voltage from varying test potentials to −60 mV, with the Boltzman equation. Test potential steps for activation protocols were of varied durations, corresponding to the time to peak of the elicited current. Inactivation curves were determined by fitting peak amplitudes of currents, observed in a test pulse to −20 mV, following 500 ms steps to varying potentials, with the Boltzman equation. Time to peak was determined using the current-voltage protocol described above. Inactivation time constants were determined by fitting the decay phase of currents to an exponential equation and deactivation time constants were determined by fitting the decay phase of tail currents to an exponential equation. […] Currents were recorded at 40 kHz and on-line filtered at either 5 or 10 kHz. In some cases currents were off-line filtered at 1 kHz to further reduce noise. Current/voltage relationships and tail currents were recorded from HEK cells using an on-line P/−4 subtraction procedure. Calcium currents recorded from HL-1 cells were off-line leak subtracted. The average membrane capacitance of untransfected HEK-293 cells in pilot experiments was 12.5±1.4 pF (n=8). […]

Assay [3] has as its target T1, Cav3.1. The experiment in a line: Whole-cell patch clamp of Cav3.1 LVA current in HEK/Cav3.1 cells transfected with γ6/γ4 chimeric and truncated constructs (Example 2). To be noted: Table 1 (Example 2). The method, then:
Transfection—HEK-293 cell lines stably transfected with Cav3.1 were transiently transfected with vectors containing γ subunit cDNAs using Lipofectamine 2000 reagent (Invitrogen) as per the manufacturer's recommendations. HEK-293 cells were grown to 70-80% confluence before transfection.
Electrophysiology—Whole-cell calcium currents were recorded using an Axopatch-1D patch clamp system and Clampex 8.0 software. Pipettes were fabricated from borosilicate glass and had typical resistances of 2-4 MΩ. The pipette solution contained (in mM): 130 NaCl, 10 EGTA, 2 MgCl2, 1 CaCl2, 10 HEPES, 3 Tris-ATP, and 0.3 Tris-GTP, adjusted to pH 7.4 with NaOH and 280 mOsm with sucrose. The bath solution contained (in mM): 137 NaCl, 1 KCl, 1 MgCl2, 0.33 NaH2PO4, 2 CaCl2, 10 HEPES, and 30 μM TTX, adjusted to pH 7.4 with NaOH and 280 mOsm with sucrose.
Recordings from HEK-293 cells were made 48-96 hours post-transfection, at which time expression, as measured by GFP fluorescence, peaked. All HEK-293 data is from current records in which pipette and whole-cell capacitance were about 100% compensated and series resistance was compensated to >80%. Series resistance values were typically <10 MΩ (megaohms), and no records were used in which the voltage error (as defined by Ver=Imax×Ra) was greater than 5 mV. The holding potential of all protocols used for HEK-293 cells was −100 mV except for steady-state inactivation protocols where the holding potential was −120 mV. Current-voltage relationships for all HEK-293 cells were measured using 50 ms test depolarizations. Peak current amplitudes for activation curves were determined by fitting tail currents, elicited by stepping membrane voltage from varying test potentials to −60 mV, with the Boltzman equation. Test potential steps for activation protocols were of varied durations, corresponding to the time to peak of the elicited current. Inactivation curves were determined by fitting peak amplitudes of currents, observed in a test pulse to −20 mV, following 500 ms steps to varying potentials, with the Boltzman equation. Time to peak was determined using the current-voltage protocol described above. Inactivation time constants were determined by fitting the decay phase of currents to an exponential equation and deactivation time constants were determined by fitting the decay phase of tail currents to an exponential equation. […] When a double exponential equation was used to fit Cav3.1 tail currents, the magnitude of the fast component was about 10 fold that of the slow component. Currents were recorded at 40 kHz and on-line filtered at 5. In some cases currents were off-line filtered at 1 kHz to further reduce noise. Current-voltage relationships and tail currents were recorded from HEK cells using an on-line P/−4 subtraction procedure. The average membrane capacitance of untransfected HEK-293 cells in pilot experiments was 12.5+/−0.4 pF (n=8).
Statistical Analysis—All data are reported as mean±SEM and tested for significance by one-way ANOVA. A value of P<0.05 was considered significant and when significant p-values were encountered groups were compared using the Tukey post-hoc test.

T1 sequence (O43497 whole entry): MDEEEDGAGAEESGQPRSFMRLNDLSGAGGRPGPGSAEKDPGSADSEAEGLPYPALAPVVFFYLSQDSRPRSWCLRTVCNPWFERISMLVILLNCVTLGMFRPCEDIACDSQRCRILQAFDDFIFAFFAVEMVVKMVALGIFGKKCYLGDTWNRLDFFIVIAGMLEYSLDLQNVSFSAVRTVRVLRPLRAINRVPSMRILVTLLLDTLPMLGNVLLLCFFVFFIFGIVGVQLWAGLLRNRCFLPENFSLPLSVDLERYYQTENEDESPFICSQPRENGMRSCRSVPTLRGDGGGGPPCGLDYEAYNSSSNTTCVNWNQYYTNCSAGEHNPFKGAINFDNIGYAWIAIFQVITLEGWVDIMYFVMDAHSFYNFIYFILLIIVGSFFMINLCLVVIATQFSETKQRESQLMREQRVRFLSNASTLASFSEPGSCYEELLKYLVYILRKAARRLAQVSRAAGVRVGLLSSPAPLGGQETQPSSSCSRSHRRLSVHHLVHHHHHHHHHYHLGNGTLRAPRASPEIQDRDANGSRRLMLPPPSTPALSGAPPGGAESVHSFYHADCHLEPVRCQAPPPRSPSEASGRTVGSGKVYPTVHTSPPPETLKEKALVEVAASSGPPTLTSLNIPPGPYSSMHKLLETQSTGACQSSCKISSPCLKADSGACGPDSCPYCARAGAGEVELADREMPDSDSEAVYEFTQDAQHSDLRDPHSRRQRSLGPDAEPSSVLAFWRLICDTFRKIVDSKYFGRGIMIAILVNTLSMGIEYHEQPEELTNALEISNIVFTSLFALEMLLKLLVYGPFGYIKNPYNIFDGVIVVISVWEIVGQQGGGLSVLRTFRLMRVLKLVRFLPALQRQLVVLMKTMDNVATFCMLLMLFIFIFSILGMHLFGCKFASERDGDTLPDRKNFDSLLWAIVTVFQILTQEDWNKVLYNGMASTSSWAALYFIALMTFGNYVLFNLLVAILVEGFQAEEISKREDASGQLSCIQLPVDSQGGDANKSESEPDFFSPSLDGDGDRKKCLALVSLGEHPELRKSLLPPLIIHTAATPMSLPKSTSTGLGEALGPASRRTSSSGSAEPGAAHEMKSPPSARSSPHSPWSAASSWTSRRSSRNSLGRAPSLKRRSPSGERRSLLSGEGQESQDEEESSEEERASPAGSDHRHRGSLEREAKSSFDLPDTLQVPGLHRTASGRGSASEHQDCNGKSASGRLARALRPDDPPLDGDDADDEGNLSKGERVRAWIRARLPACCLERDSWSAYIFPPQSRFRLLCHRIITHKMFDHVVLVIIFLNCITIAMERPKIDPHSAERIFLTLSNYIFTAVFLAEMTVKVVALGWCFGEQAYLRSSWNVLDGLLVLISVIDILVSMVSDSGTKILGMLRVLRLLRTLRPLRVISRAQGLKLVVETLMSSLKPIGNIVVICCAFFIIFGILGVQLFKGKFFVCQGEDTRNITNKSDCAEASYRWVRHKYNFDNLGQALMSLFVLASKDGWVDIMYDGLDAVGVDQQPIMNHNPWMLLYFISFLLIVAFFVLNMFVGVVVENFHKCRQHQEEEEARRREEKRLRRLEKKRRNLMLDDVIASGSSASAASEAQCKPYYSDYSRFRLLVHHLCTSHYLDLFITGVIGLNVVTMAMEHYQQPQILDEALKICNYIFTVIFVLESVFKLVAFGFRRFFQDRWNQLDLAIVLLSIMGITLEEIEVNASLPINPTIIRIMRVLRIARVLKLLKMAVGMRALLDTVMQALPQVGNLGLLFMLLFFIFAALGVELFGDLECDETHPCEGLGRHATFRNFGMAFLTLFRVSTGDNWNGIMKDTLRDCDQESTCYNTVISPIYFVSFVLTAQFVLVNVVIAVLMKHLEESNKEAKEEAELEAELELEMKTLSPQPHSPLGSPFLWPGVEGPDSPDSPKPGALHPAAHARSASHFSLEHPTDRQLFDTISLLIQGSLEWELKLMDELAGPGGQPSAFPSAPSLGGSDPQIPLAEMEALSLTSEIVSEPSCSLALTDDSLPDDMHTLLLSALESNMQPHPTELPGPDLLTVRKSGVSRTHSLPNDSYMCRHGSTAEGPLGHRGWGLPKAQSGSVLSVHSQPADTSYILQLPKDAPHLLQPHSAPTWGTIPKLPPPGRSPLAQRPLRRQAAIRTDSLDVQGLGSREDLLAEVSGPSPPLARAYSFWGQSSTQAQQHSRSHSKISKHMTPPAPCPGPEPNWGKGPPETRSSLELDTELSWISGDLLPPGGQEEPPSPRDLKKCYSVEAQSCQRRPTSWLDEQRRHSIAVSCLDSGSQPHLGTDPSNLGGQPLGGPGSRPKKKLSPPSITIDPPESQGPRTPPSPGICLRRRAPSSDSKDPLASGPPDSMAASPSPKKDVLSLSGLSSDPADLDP

B1: γ1 T12G: γ1 single mutant containing just part of the GXXXA motif (protein, UniProt Q06432 1-222, looked up, variant T12G)
Voltage-dependent calcium …: MSQTKMLKVRVGLFCILAGIVLAMTAVVTDHWAVLSPHMEHHNTTCEAAHFGLWRICTKRIPMDDSKTCGPITLPGEKNCSYFRHFNPGESSEIFEFTTQKEYSISAAAIAIFSLGFIILGSLCVLLSLGKKRDYLLRPASMFYAFAGLCILVSVEVMRQSVKRMIDSEDTVWIEYYYSWSFACACAAFILLFLGGLALLLFSLPRMPRNPWESCMDAEPEH
For B1, in the assay with Cav3.1 [1], the “Effect on Cav3.1 calcium current density” value is listed as “no effect”.

B2: γ1 (T12G, I16A): γ1 double mutant containing the complete GXXXA motif in TM1 (protein, UniProt Q06432 1-222, looked up, variant T12G I16A)
Voltage-dependent calcium …: B1 Voltage-dependent calcium … with I16A
B2: in the assay with Cav3.1 [1], the “Effect on Cav3.1 calcium current density” value is on record as “significantly inhibited”.

B3: γ6S: rat calcium channel γ6 subunit, short isoform (AF361344), SEQ ID NO:49 (protein, listed as Rattus norvegicus)
chain: MMWSNFFMQEEDRRRTAVGRRRAQEQQNLGLTPEREGKIKLGLLVAIVGATLAVLAVGTEFWVELNTYKTNGSAVCEAAHLGLWKVCIKRLWQADVPAGRETCGPAELPGEANCTYFKFFTTGENAHIFQRTTKKGLLLFVSLEVFRHSVRALLQGVNPETPPAPRLAYEYSWSLGCGVGAGLILLLGGVCFLLLTLPSWPWRSLCPKRGGPTA
On to B3, for which the “Effect on current kinetics or voltage dependency” value with Cav3.1 [2] (HEK-293/Cav3.1) is given as “did not alter current kinetics or voltage dependency”. Moreover, the “Peak current density, % of control value” with Cav3.1 [2] (HEK-293/Cav3.1, normalized to adCGI vector control, mean±S.E.M.) is listed as 31%±13%. Besides, in the assay with Cav3.1 [2] (Table 2), the “Activation V 0.5” value is −36.3 ± 6.2 (n = 4) mV; the Activation k was 12.7 ± 1.5 (n = 4); the “Deactivation tau @ −100 mV, Fast” value is listed as 1.20 ± 0.06 (n = 3) ms; the “Inactivation Tau @ −20 mV” value is given as 22.9 ± 0.7 (n = 2) ms. Also, in the assay with Cav3.1 [2] (Table 2), the “Inactivation V 0.5” value is −72.0 ± 5.9 (n = 3) mV, the Inactivation k was 5.9 ± 0.7 (n = 3), the “Time to peak @ −20 mV” value is recorded as 6.4 ± 0.5 (n = 3) ms and the V peak is on record as −27.0 ± 2.5 (n = 5) mV. The “Decrease in Cav3.1 current density” value in the assay with Cav3.1 [2] (co-expression with Cav3.1 in HEK-293 cells) is 69%. Also, in the assay with Cav3.1 [3], the “Activation V 0.5” value was −36.3 ± 6.2 (n = 4) mV; the Activation k is given as 12.7 ± 1.5 (n = 4); the “Deactivation tau @ −100 mV, Fast” value is reported as 1.20 ± 0.06 (n = 3) ms; the “Inactivation V 0.5” value is −72.0 ± 5.9 (n = 3) mV. Also, in the assay with Cav3.1 [3], the Inactivation k is recorded as 5.9 ± 0.7 (n = 3), the “Inactivation tau @−20 mV” value is listed as 22.9 ± 0.7 (n = 2) ms, the “Time to peak @ −20 mV” value was 6.4 ± 0.5 (n = 3) ms and the V peak is −27.0 ± 2.5 (n = 5) mV.
